Measured values published in article doi:10.1101/2024.05.27.596091.
Read-outs that look alike come from different tables or passages of the source.

Legend:
[1] = molecular target: αβ-tubulin (bovine) (UniProt Q6B856); test: co-sedimentation
[2] = molecular target: αβ-tubulin (bovine) (UniProt Q6B856); test: co-sedimentation; remark: listed apart in the source

critical concentration for spontaneous nucleation [1]: 3.9 µM
critical concentration for spontaneous nucleation [2]: 20.7 µM
Substance: αβ-tubulin (from UniProt Q6B856 1-445) (complex)
